Article PMC4764553 (eLife, 2016)

B1: IE1-CTD peptide (chromatin-tethering domain of hCMV IE1, a.a. 476–491) (peptide)
peptide: GGKSTHPMVTRSKADQ
B2: Full-length hCMV (Towne) IE1 (natural protein)
chain: MESSAKRKMDPDNPDEGPSSKVPRPETPVTKATTFLQTMLRKEVNSQLSLGDPLFPELAEESLKTFERVTEDCNENPEKDVLAELVKQIKVRVDMVRHRIKEHMLKKYTQTEEKFTGAFNMMGGCLQNALDILDKVHEPFEEMKCIGLTMQSMYENYIVPEDKREMWMACIKELHDVSKGAANKLGGALQAKARAKKDELRRKMMYMCYRNIEFFTKNSAFPKTTNGCSQAMAALQNLPQCSPDEIMAYAQKIFKILDEERDKVLTHIDHIFMDILTTCVETMCNEYKVTSDACMMTMYGGISLLSEFCRVLSCYVLEETSVMLAKRPLITKPEVISVMKRRIEEICMKVFAQYILGADPLRVCSPSVDDLRAIAEESDEEEAIVAYTLATRGASSSDSLVSPPESPVPATIPLSSVIVAENSDQEESEQSDEEEEEGAQEEREDTVSVKSEPVSEIEEVAPEEEEDGAEEPTASGGKSTHPMVTRSKADQ
B3: IE1-CTD mutant lacking the N-terminal segment (Δ476–480) (peptide)
peptide: HPMVTRSKADQ

Target: T1, Human nucleosome core particle (human histone octamer with the 147-bp Widom 601 DNA) (human, UniProt P68431 1-136; P62805 1-103; P04908 1-130; P06899 1-126)
T1 construct: also called recombinant human NCP; human NCP
Experiment: ITC
Details: both partners purified

Binder | Kd [µM] | fold weaker binding than IE1-CTD alone [fold]
B1 | 0.4 | 
B2 |  | ~5
B3 | 12 | 
